This note sets out measurements from patent US20210363269A1 (ALX ONCOLOGY, published 2021).

The target of assay [1] is T1, human SIRP-α v1 D1 domain (human, UniProt P78324 31-149).
T1 construct: also called human v1; human α v1
Nature of the assay: SPR, ProteOn, antibody on chip. On the technique in general: Surface plasmon resonance follows binding to a sensor surface in real time, without labels.

Assay [2] concerns the target T2, human SIRPβ isoform 2 (human, UniProt Q5TFQ8 30-148).
T2 construct: also called Sirpb2; beta isoform 2
The experiment in a line: SPR, ProteOn, antibody on chip.

Assay [3] deals with T3, human SIRPγ isoform 1 (human, UniProt Q9P1W8 29-147).
T3 construct: also called sirpg; sirp-g
Nature of the assay: SPR, ProteOn, antibody on chip.

In assay [4] the target is T4, human SIRP-α v2 D1 domain (human).
T4 construct: also called human v2; human α v2
T4 sequence (chain, as listed by the source limits assumed): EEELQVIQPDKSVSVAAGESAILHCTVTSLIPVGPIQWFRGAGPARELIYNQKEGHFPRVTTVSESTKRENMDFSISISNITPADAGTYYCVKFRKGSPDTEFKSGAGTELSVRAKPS
The experiment in a line: SPR, ProteOn, antibody on chip.

The target in assay [5] is T5, cynomolgus SIRP-α D1 domain (SEQ ID NO:11) (cynomolgus, UniProt Q5TFQ8 30-148 (human entry), limits assumed).
T5 construct: also called cyno1
T5 chain: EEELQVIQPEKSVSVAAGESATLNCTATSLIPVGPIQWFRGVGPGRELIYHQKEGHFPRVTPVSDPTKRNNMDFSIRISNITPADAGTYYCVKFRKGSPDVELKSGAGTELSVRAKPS
The experiment in a line: SPR, ProteOn, antibody on chip.

In assay [6] the target is T6, human SIRPβ isoform 1 (human, UniProt O00241 30-148).
T6 construct: also called sirpb1; Sirpb1
Nature of the assay: SPR, ProteOn, antibody on chip.

Assay [7] addresses T5, cynomolgus SIRP-α D1 domain (SEQ ID …). The experiment in a line: SPR, Langmuir fit.
In assay [8] the target is T7, cynomolgus SIRP-α D1 domain (SEQ ID NO:12) (cynomolgus, UniProt Q5TFQ8 30-148 (human entry), limits assumed).
T7 construct: also called cyno2; Cyno2
T7 chain: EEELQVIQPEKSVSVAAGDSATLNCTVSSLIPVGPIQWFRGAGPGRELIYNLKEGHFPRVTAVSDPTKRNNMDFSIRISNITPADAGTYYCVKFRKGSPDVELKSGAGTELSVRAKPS
The experiment in a line: SPR, Langmuir fit.

Assay [9] deals with T8, NOD mouse SIRP-α D1 domain (mouse (NOD strain)).
T8 chain: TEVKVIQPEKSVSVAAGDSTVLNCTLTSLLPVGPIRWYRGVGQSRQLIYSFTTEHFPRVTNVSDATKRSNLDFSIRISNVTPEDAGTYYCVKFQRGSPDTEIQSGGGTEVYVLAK
Nature of the assay: SPR, Langmuir fit.

Assay [10] concerns the target T9, C57BL/6 mouse SIRP-α D1 domain (mouse (C57BL/6 strain), UniProt P97797 32-148).
T9 sequence: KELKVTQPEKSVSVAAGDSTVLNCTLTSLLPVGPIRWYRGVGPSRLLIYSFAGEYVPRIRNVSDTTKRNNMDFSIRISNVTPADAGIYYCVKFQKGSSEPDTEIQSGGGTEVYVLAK
Nature of the assay: SPR, Langmuir fit.

Assay [11] addresses T10, BALB/c mouse SIRP-α D1 domain (mouse (BALB/c strain)).
T10 chain: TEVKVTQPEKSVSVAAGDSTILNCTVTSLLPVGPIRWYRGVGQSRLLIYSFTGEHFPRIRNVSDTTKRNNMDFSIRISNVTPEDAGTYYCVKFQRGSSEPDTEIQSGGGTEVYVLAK
The experiment in a line: SPR, Langmuir fit.

The target of assay [12] is T11, human SIRP-α v1 (human, UniProt P78324 31-149).
T11 construct: also called Human v1; Human V1
T11 sequence (P78324 31-149 limits assumed): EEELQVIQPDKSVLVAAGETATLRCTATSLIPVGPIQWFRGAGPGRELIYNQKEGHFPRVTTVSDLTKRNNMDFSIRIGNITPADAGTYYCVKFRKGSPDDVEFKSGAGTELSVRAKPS
Nature of the assay: SPR. The method in brief: (§1)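 SIRP analytes at nominal, A280-based concentrations were injected in one-shot kinetic mode over purified antibodies that were amine-coupled to a GLC chip or captured by biotinylated Protein A on an NLC chip of a ProteOn XPR36. All runs were at 25° C in PBS pH 7.4 with 0.01% Tween-20. Apparent ka and kd came from a global simple Langmuir fit of double-referenced data, with KD as their ratio kd/ka.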

Assay [13] deals with T12, human SIRP-α v2 (human).
T12 construct: also called Human v2; Human V2
T12 sequence (chain, as listed by the source limits assumed): as the sequence (chain, as listed by the source limits assumed) above
Nature of the assay: SPR. The method, boiled down: as §1

The target in assay [14] is T13, cynomolgus SIRP-α (cynomolgus monkey, UniProt Q5TFQ8 30-148 (human entry), limits assumed).
T13 construct: also called cyno1
T13 chain: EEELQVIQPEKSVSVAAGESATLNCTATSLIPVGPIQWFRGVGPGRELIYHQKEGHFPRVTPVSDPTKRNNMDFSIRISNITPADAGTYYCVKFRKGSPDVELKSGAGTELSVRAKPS
Nature of the assay: SPR. The method in brief: as §1

Assay [15] addresses T14, NOD mouse SIRP-α (mouse (NOD strain)).
T14 chain: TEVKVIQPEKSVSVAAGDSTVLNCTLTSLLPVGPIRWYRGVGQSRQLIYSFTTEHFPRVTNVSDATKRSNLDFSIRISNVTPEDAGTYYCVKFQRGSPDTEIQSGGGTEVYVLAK
Nature of the assay: SPR. The method in brief: as §1

Assay [16] has as its target T15, BL6 mouse SIRP-α (mouse (C57BL/6 strain), UniProt P97797 32-148).
T15 construct: also called C57BL/6
T15 sequence: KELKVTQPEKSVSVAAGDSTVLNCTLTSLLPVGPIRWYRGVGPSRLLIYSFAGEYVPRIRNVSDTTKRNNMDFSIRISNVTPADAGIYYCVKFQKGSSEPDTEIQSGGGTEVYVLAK
The experiment in a line: SPR. The method, boiled down:
as §1

Assay [17] addresses T16, BALBc mouse SIRP-α (mouse (BALB/c strain)).
T16 chain: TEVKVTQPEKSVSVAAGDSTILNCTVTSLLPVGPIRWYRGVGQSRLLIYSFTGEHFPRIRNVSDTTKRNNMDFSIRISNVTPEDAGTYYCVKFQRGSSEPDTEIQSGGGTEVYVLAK
The experiment in a line: SPR. The method in brief:
as §1

For assay [18], the target named is T17, human SIRPβ isoform 1 (human, UniProt O00241 30-148).
T17 construct: also called Beta; Human SIRPb
Nature of the assay: SPR. The method in brief: as §1

For assay [19], the target named is T18, human SIRPγ isoform 1 (human, UniProt Q9P1W8 29-147).
T18 construct: also called Gamma; Human SIRPg
Nature of the assay: SPR. The method in brief:
as §1

T2 sequence (Q5TFQ8 30-148 limits assumed): as the sequence (P78324 31-149 limits assumed) above, with V13I, L14S, T20S, R24H, A27V, G79S, D101H counted along it

B1: AB132a (antibody, human IgG1, V domains shown)
VH: DVQLVESGGGVVRPGESLRLSCAASGFSFRSYAMNWVRQAPGEGLEWVSRINSGGGGTDYADSVKGRFTISRDNSKNTLYLQMNSLRAEDTAVYYCAKQYDWNSFFDYWGLGALVTVSS
VL: ETVLTQSPATLSVSPGERATLSCRASQTVGSKLAWHQQKPGQAPRLLIYDASNRATGIPDRFSGSGSGTDFTLTISSPQTEDSAVYYCQQYYYWPPYRFGGGTKVEIK
notes: Full-length human IgG1 with L234A, L235A, G237A and N297A; only variable domains tied to the clone
For orientation: Kd means a measure of binding affinity in units of concentration. B1: the Kd in [1] stood at 426 pM; in assay [2] it was 164 pM; in assay [3], 519 pM; in [4], 1860 pM; in [5], 2410 pM; in assay [6], 131 pM.

B2: AB45 (as in Table J1) (antibody, V domains shown)
VH: AVTLDESGGGLQTPGGALSLVCKASGFTFSSYAMGWVRQAPGKGLEWVAGIDDDGSTANYGPAVKGRATISRDNGQSTVRLQLNNPRAEDSGTYFCAKASVTGWSAHISGRLDTWGHGTEVIVSS
VL: ALTQPASVSANPGETVKITCSGGGIYYYGWYQQKSPGSAPVTLIYENDKRPSDIPSRFSGSTSGSTNTFTITGVQAEDEAVYYCGGYDSNTTSGIFGAGTTLTVL
notes: also called antibody 45
For B2, the binding result in [7], in [8], in assay [9], in assay [10] and in [11] was “no binding” throughout.

B3: Hum1/AB21_HC_Mutall (antibody, V domains shown)
VH: EVQLVESGGGVVQPGGSLRLSCAASGFTFSSNAMSWVRQAPGKGLEWVAGISAGGSDTYYPASVKGRFTISRDNSKNTLYLQMNSLRAEDTAVYYCARETWNHLFDYWGQGTLVTVSS
VL: SYELTQPPSVSVSPGQTARITCSGGSYSSYYYAWYQQKPGQAPVTLIYSDDKRPSNIPERFSGSSSGTTVTLTISGVQAEDEADYYCGGYDQSSYTNPFGGGTKLTVL
notes: also called Hum1/AB21mutall
As for B3, the Kd turned out to be 5.32 pM in assay [12]; 4.6 pM in assay [13]; 29.1 pM in assay [14]; 3700 pM in assay [15]; 9500 pM in assay [16]; 7910 pM in assay [17]. The equilibrium dissociation constant (Kd) is 6.7 pM in assay [18] and under 1 pM in assay [19].

B4: Hum9/AB21_HC_Mutall (antibody, V domains shown)
VH: EVQLVESGGGVVQPGGSLRLSCAASGFTFSSNAMSWVRQAPGKGLEWVAGISAGGSDTYYPASVKGRFTISRDNSKNTLYLQMNSLRAEDTAVYYCARETWNHLFDYWGQGTLVTVSS
VL: SYELTQPPSVSVSPGQTARITCSGGAYSSYYYAWYQQKPGQAPVLVIYSDDKRPSGIPERFSGSSSGTTVTLTISGVQAEDEADYYCGGYDQSSYTNPFGGGTKLTVL
notes: also called Hum9/AB21mutall
For the molecule B4, the Kd in assay [12] is 11.9 pM; in [13], 119 pM; in assay [14], 222 pM; in [15] it was 24100 pM; in assay [17] it was 136000 pM; in assay [18], 56.9 pM. This molecule also registered a Kd in assay [19] of 34.5 pM.
